Among the data in publication PMC12839305 (2025) are Kd values, retold here.

This assay addresses T1, RVFV glycoprotein Gn head domain (154–469 aa) (Rift Valley fever virus, UniProt P21401 154-469).
T1 chain: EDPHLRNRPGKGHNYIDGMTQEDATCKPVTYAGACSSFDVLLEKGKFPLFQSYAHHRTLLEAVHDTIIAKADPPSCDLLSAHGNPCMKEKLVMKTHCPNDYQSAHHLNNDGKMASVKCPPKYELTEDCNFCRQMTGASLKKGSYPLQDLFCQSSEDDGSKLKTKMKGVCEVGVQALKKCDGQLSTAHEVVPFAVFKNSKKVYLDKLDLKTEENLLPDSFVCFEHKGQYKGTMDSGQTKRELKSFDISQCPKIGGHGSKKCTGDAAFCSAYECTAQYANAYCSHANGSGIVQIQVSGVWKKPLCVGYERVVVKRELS
The assay is described as follows: BLI.

B1: LRP1 single complement-type repeat CR25 fused to human Fc (Fc fusion)
chain: not shown
The molecule B1 registered a Kd of 67 nM.
